What was measured:
Assay in all cases: holdup assay
Set-up in all cases: key: below the threshold = too weak to quantify, mostly under pKd 3.1 to 4
Conditions in all cases: plain residues with an end cap or a label only (N-terminal biotin on a linker: ado-ado)
NHERF4_1, Q86UT5-2 = biological target: NHERF4_1, Q86UT5-2
DLG3_1, Q92796 = biological target: T1, DLG3_1, Q92796
T1 sequence (Q92796 125-227, limits assumed, looked up): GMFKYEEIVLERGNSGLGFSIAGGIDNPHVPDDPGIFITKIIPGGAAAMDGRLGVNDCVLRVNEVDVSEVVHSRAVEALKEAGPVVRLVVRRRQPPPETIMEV

LIN7A, O14910 = biological target: T2, LIN7A, O14910
T2 sequence (O14910 103-200, limits assumed, looked up): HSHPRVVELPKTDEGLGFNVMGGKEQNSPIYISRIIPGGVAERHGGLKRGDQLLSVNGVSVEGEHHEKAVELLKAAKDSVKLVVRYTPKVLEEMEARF

FRMPD2_2, Q68DX3 = biological target: FRMPD2_2, Q68DX3
Sequence of FRMPD2_2, Q68DX3 (Q68DX3 944-1038): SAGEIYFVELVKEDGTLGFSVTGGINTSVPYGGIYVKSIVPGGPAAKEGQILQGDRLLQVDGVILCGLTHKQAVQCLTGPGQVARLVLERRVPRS

MPDZ_5, O75970 = biological target: T3, MPDZ_5, O75970
T3 sequence (O75970 695-796, limits assumed, looked up): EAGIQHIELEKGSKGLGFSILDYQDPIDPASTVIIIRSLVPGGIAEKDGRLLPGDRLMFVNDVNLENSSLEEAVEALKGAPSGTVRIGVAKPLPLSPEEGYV

GORASP2, Q9H8Y8 = biological target: GORASP2, Q9H8Y8
DFNB31_1, Q9P202 = biological target: T4, DFNB31_1, Q9P202
T4 sequence (Q9P202 135-233, limits assumed, looked up): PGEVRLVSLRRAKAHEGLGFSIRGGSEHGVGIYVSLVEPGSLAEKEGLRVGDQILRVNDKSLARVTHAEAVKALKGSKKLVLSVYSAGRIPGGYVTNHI

SNTG2, Q9NY99 = biological target: T5, SNTG2, Q9NY99
T5 sequence (Q9NY99 68-166, limits assumed, looked up): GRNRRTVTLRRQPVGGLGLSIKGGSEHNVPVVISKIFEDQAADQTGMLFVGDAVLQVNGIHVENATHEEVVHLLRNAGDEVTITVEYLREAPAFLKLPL

SNTG1, Q9NSN8 = biological target: T6, SNTG1, Q9NSN8
T6 sequence (Q9NSN8 52-150, limits assumed, looked up): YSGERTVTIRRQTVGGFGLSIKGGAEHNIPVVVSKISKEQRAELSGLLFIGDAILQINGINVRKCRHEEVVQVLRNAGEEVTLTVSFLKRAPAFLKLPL

NHERF3_3, Q5T2W1 = biological target: T7, NHERF3_3, Q5T2W1
T7 sequence (Q5T2W1 238-333, limits assumed, looked up): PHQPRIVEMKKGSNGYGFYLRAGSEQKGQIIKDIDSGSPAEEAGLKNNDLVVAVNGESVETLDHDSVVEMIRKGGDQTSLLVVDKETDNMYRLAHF

Inadl_10, Q8NI35 = biological target: Inadl_10, Q8NI35
Sequence of Inadl_10, Q8NI35 (Q8NI35 1673-1763): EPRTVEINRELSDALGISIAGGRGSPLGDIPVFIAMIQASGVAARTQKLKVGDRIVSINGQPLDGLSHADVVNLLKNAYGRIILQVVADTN

LIMK2, P53671 = biological target: LIMK2, P53671
Sequence of LIMK2, P53671 (P53671 143-248): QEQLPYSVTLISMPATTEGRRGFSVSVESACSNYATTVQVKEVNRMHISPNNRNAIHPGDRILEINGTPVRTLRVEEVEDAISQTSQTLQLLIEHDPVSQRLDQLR

Inadl_3, Q8NI35 = biological target: Inadl_3, Q8NI35
Sequence of Inadl_3, Q8NI35 (Q8NI35 359-469): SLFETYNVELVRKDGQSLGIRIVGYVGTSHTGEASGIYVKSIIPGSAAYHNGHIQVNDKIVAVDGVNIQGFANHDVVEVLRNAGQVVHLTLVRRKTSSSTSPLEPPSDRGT

LNX1_2, Q8TBB1 = biological target: LNX1_2, Q8TBB1
Sequence of LNX1_2, Q8TBB1 (Q8TBB1 371-470): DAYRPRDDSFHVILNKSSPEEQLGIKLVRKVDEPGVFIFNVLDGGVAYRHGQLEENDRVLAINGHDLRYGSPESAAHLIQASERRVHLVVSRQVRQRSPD

RADIL, Q96JH8 = biological target: T8, RADIL, Q96JH8
T8 sequence (Q96JH8 971-1071, limits assumed, looked up): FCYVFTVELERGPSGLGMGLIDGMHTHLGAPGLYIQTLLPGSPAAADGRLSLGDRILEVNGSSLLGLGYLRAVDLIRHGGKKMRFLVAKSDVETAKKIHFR

DLG1_3, Q12959 = biological target: DLG1_3, Q12959
Sequence of DLG1_3, Q12959 (Q12959 457-571): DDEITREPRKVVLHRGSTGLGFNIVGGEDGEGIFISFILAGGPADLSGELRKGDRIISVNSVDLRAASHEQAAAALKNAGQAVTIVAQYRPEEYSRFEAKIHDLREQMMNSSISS

RHPN1, Q8TCX5 = biological target: T9, RHPN1, Q8TCX5
T9 sequence (Q8TCX5 508-602, limits assumed, looked up): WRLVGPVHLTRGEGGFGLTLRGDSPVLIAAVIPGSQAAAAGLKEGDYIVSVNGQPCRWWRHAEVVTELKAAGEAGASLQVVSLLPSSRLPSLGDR

DLG3_2, Q92796 = biological target: T10, DLG3_2, Q92796
T10 sequence (Q92796 221-321, limits assumed, looked up): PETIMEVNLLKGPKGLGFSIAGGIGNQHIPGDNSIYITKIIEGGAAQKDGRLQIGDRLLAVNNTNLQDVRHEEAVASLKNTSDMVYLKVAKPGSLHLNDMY

FRMPD2_3, Q68DX3 = biological target: FRMPD2_3, Q68DX3
Sequence of FRMPD2_3, Q68DX3 (Q68DX3 1073-1166): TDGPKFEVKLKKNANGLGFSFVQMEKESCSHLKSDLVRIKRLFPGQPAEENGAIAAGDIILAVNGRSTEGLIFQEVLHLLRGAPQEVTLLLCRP

PTPN13_1, Q12923 = biological target: T11, PTPN13_1, Q12923
T11 sequence (Q12923 1088-1188, limits assumed, looked up): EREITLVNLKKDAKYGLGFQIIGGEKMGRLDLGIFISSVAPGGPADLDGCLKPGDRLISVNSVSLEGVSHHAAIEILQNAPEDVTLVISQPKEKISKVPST

AHNAK1, Q09666 = biological target: AHNAK1, Q09666
Sequence of AHNAK1, Q09666 (Q09666 4-100): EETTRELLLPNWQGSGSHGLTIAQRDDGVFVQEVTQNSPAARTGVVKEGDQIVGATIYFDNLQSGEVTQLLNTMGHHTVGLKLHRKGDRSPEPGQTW

MAGI2_4, Q86UL8 = biological target: MAGI2_4, Q86UL8
Sequence of MAGI2_4, Q86UL8 (Q86UL8 772-865): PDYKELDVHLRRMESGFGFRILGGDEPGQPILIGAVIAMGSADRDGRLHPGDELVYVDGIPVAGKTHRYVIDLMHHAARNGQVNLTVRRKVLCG

MAGI1_2, Q96QZ7 = biological target: MAGI1_2, Q96QZ7
Sequence of MAGI1_2, Q96QZ7 (Q96QZ7 456-580): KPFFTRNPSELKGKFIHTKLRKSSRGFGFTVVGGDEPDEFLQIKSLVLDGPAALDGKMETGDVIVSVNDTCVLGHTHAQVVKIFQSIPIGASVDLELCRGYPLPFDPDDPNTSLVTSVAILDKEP

PTPN3, P26045 = biological target: PTPN3, P26045
Sequence of PTPN3, P26045 (P26045 505-587): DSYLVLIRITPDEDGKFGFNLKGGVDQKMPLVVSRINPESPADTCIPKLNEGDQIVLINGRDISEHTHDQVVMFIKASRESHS

SCRIB_2, Q14160 = biological target: SCRIB_2, Q14160
Sequence of SCRIB_2, Q14160 (Q14160 857-960): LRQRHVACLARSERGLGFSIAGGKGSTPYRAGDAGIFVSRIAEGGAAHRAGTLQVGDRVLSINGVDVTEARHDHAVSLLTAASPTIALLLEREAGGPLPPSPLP

Inadl_9, Q8NI35 = biological target: Inadl_9, Q8NI35
Sequence of Inadl_9, Q8NI35 (Q8NI35 1530-1615): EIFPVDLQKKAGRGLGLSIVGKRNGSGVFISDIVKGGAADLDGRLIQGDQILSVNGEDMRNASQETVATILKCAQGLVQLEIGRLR

TJP1_3, Q07157 = biological target: TJP1_3, Q07157
Sequence of TJP1_3, Q07157 (Q07157 416-512): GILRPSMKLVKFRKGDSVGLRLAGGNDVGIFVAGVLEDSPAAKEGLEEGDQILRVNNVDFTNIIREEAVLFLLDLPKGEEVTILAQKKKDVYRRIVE

Sequence of NHERF4_1, Q86UT5-2 (Q86UT5 other isoform, or with tags, fused parts or gaps): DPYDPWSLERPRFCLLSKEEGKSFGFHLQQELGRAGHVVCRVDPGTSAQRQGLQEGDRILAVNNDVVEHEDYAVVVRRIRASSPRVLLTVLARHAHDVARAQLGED

Binder | pKd (NHERF4_1, Q86UT5-2) | pKd (DLG3_1, Q92796) | pKd (LIN7A, O14910) | pKd (FRMPD2_2, Q68DX3) | pKd (MPDZ_5, O75970) | pKd (GORASP2, Q9H8Y8) | pKd (DFNB31_1, Q9P202) | pKd (SNTG2, Q9NY99) | pKd (SNTG1, Q9NSN8) | pKd (NHERF3_3, Q5T2W1) | pKd (Inadl_10, Q8NI35) | pKd (LIMK2, P53671) | pKd (Inadl_3, Q8NI35) | pKd (LNX1_2, Q8TBB1) | pKd (RADIL, Q96JH8) | pKd (DLG1_3, Q12959) | pKd (RHPN1, Q8TCX5) | pKd (DLG3_2, Q92796) | pKd (FRMPD2_3, Q68DX3) | pKd (PTPN13_1, Q12923) | other results
SKSLERATQL [COMMD3, Q9UBI1] | 4.23 | 3.72 | below the threshold | 3.65 | below the threshold | 3.84 | 3.74 | below the threshold | 3.51 | 3.8 | below the threshold | below the threshold | below the threshold | below the threshold | 3.63 | 3.97 | 4.13 | 4.01 | 3.49 | below the threshold | pKd (AHNAK1, Q09666): below the threshold; pKd (MAGI2_4, Q86UL8): 3.94; pKd (MAGI1_2, Q96QZ7): 3.85; pKd (PTPN3, P26045): 4.91; pKd (SCRIB_2, Q14160): 3.55; pKd (Inadl_9, Q8NI35): below the threshold; pKd (TJP1_3, Q07157): 3.51
QELLEYETTV [XKR7, Q5GH72] | below the threshold | 4.51 | 4.38 | 4.83 | below the threshold | 3.8 | 4.2 | 4.69 | 5.14 | below the threshold | below the threshold | below the threshold | 4.63 | 3.73 | 4.73 | 4.09 | 4.66 | 4.85 | 3.63 | below the threshold | pKd (AHNAK1, Q09666): below the threshold; pKd (MAGI2_4, Q86UL8): 4.26; pKd (MAGI1_2, Q96QZ7): 3.6; pKd (PTPN3, P26045): 4.85; pKd (SCRIB_2, Q14160): 4.42; pKd (Inadl_9, Q8NI35): 3.89; pKd (TJP1_3, Q07157): below the threshold
REVVMRVTTV [MARCHF9, Q86YJ5] | 3.47 | 4.38 | 3.82 | 4.11 | below the threshold | 5.53 | 3.98 | 4.65 | 4.89 | below the threshold | 3.6 | below the threshold | 3.94 | 4.56 | 4.68 | 5.01 | 3.91 | 5.23 | below the threshold | below the threshold | pKd (AHNAK1, Q09666): below the threshold; pKd (MAGI2_4, Q86UL8): 4.77; pKd (MAGI1_2, Q96QZ7): 4.84; pKd (PTPN3, P26045): 4.91; pKd (SCRIB_2, Q14160): 4.15; pKd (Inadl_9, Q8NI35): 3.75; pKd (TJP1_3, Q07157): below the threshold
WRSKRTDTLL [RAMP3, O60896] | 4.33 | below the threshold | below the threshold | below the threshold | below the threshold | below the threshold | 3.74 | below the threshold | below the threshold | 3.48 | below the threshold | below the threshold | below the threshold | below the threshold | 3.57 | below the threshold | 4.04 | below the threshold | below the threshold | below the threshold | pKd (AHNAK1, Q09666): below the threshold; pKd (MAGI2_4, Q86UL8): 3.91; pKd (MAGI1_2, Q96QZ7): 4.43; pKd (PTPN3, P26045): 4.22; pKd (SCRIB_2, Q14160): below the threshold; pKd (Inadl_9, Q8NI35): below the threshold; pKd (TJP1_3, Q07157): below the threshold
VISERNSTTV [C3AR1, Q16581] | below the threshold | 4.06 | below the threshold | below the threshold | below the threshold | below the threshold | below the threshold | 3.61 | below the threshold | below the threshold | below the threshold | below the threshold | below the threshold | 3.78 | 4.11 | below the threshold | 4.16 | 4.42 | below the threshold | below the threshold | pKd (AHNAK1, Q09666): below the threshold; pKd (MAGI2_4, Q86UL8): 4.44; pKd (MAGI1_2, Q96QZ7): 4.4; pKd (PTPN3, P26045): 4.01; pKd (SCRIB_2, Q14160): 3.71; pKd (Inadl_9, Q8NI35): 3.64; pKd (TJP1_3, Q07157): below the threshold
PDGEMMEVLI [AMOTL1, Q8IY63] | below the threshold | below the threshold | below the threshold | below the threshold | below the threshold | below the threshold | below the threshold | below the threshold | 3.63 | below the threshold | below the threshold | below the threshold | 5.08 | below the threshold | 3.9 | below the threshold | below the threshold | 4.06 | below the threshold | below the threshold | pKd (AHNAK1, Q09666): below the threshold; pKd (MAGI2_4, Q86UL8): below the threshold; pKd (MAGI1_2, Q96QZ7): below the threshold; pKd (PTPN3, P26045): below the threshold; pKd (SCRIB_2, Q14160): below the threshold; pKd (Inadl_9, Q8NI35): 3.58; pKd (TJP1_3, Q07157): below the threshold

— paper PMC9482650, “Quantitative fragmentomics allow affinity mapping of interactomes” (Nature Communications, 2022)
